B1: TPR t1 (parent)
chain: GACCAAUCUGCCCUCAGAGCUCGAGAACAUCUUCGGAUGCAGAGGAGGCAGGCUUCGGUGGCGCGAUAGCGCCAACGUCCUCAACCUCCAAUGCAUCCCACCACAUGAUGAUGCCUGAAGAGCCUUGGUUUUUUG

Variants of: B1
Test: polymerase ribozyme fitness, log enrichment relative to wild type (log ratio); higher = more active; in vitro selection for triplet polymerase activity
Method in brief: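 Each subunit of a heterodimeric triplet polymerase ribozyme was represented by a PCR-built, transcribed mutant library that underwent triplicate single-round in vitro selection with frozen incubation at −7 °C. Extended constructs were recovered by gel excision, streptavidin-bead capture and RT-PCR, and Illumina sequencing of input and output libraries kept genotypes with ≥10 input reads and ≥1 read per output. Fitness is the logarithm of genotype enrichment relative to wild-type enrichment, from inverse-variance-weighted replicate averages, with a logarithm base of 2.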

| Variant | polymerase ribozyme fitness (log ratio) |
| --- | --- |
| GACCAAUCUGCCCUCAGAGCUCGAGAACAUCUUCGGAUGCAGAGGAGGCAGGCUUGGGCGGCGCGAUAGCGCCAACGUCCUCAACCUCCAAUGCAUCCCACCACAUGAUGAUGCCUGAAGAGCCUUGGUUUUUUG [C56G U59C] | -1.57 |
| GACCAAUCUGCCCUCAGAGCUCGAGAACAUCUUCGGAUGCAGAGGAGGCAGGCUUGGGUGGCGCGAUAGCGCCAACGUCCUCAACCUCCAAUGCAUCCCACCACAUGAUGAUGCCUGAAAAGCCUUGGUUUUUUG [C56G G120A] | 0.238 |
| GACCAAUCUGCCCUCAGAGCUCGAGAACAUCUUCGGAUGCAGAGGAGGCAGGCUUGGGUGGCGCGAUAGCGCCAACGUCCUCAACCUCCAAUGCAUCCCACCACAUGAUGAUGCCUGAAUAGCCUUGGUUUUUUG [C56G G120U] | -0.0956 |
| GACCAAUCUGCCCUCAGAGCUCGAGAACAUCUUCGGAUGCAGAGGAGGCAGGCUUGGGUGGCGCGAUAGCGCCAACGUCCUCAACCUCCAAUGCAUCCCACCACAUGAUUAUGCCUAAAGAGCCUUGGUUUUUUG [C56G G110U G117A] | -4.5 |
| GACCAAUCUGCCCUCAGAGCUCGAGAACAUCUUCGGAUGCAGAGGAGGCAGGCUUGGGUGGCGCGAUAGCGCCAACAUCCUCAACCUCCAAUGCAUCCCACUACAUGAUGAUGCCCGAAGAGCCUUGGUUUUUUG [C56G G77A C102U U116C] | -3.2 |
| GACCAAUCUGCCCUCAGAGCUCGAGAACAUCUUCGGAUGCAGAGGAGGCAGGCUUGGGUGGCGCGAUAACGCCAACGUCCUCAACCUCCAAUGCAUCCCACCACAUGAUGAUGCCUGAAGAGCCUUGGUUUUUUG [C56G G69A] | -2.86 |
| GACCAAUCUGCCCUCAGAGCUCGAGAACAUCUUCGGAUGCAGAGGAGGCAGGCUUGGGUGGCGCGAUAGCGCCAACGUCCUCAACCUCCAAUGCAUCCCACCACAUGAUGAUGCCUAAAGAGCCUUGGUUUUUUG [C56G G117A] | -2.32 |
| GACCAAUCUGCCCUCAGAGCUCGAGAACAUCUUCGGAUGCAGAGGAGGCAGGCUUGGGUGGCGCGAUAGCGCCAACGUCCUCAACCUCCAAUGCAUCCCACCACAUGAUGAUGCCUCAAGAGCCUUGGUUUUUUG [C56G G117C] | -2.91 |
| GACCAAUCUGCCCUCAGAGCUCGAGAACAUCUUCGGAUGCAGAGGAGGCAGGCUUGGGUGGCGCGAUAGCGCCAACGUCCUCAACCUCCAAUGCAUCCCACCACAUGAAGAUGCCUGAAGAGCCUUGGUUUUUUG [C56G U109A] | -4.28 |
| GACCAAUCUGCCCUCAGAGCUCGAGAACAUCUUCGGAUGCAGAGGAGGCAGGCUUGGGUGGCGCGAUAGCGCCAACGUCCUCAACCUCCAAUGCAGCCCACCACAUGAUGAUGCCUGAAUAGCCUUGGUUUUUUG [C56G U96G G120U] | -1.41 |
| GACCAAUCUGCCCUCAGAGCUCGAGAACAUCUUCGGAUGCAGAGGAGGCAGGCUUGGGUGGCGCGAUAGCGCCAACGUCCUCAACCUCCAAUACAUCCCACCACAUGAUGAUGCCUGAAGAGCCUUGGUUUUUUG [C56G G93A] | -1.61 |
| GACCAAUCUGCCCUCAGAGCUCGAGAACAUCUUCGGAUGCAGAGGAGGCAGGCUUGGGUGGCGCGAUAGCGCCAACGUCCUCAACCUCCAAUCCAUCCCACCACAUGAUGAUGCCUGAAGAGCCUUGGUUUUUUG [C56G G93C] | -1.86 |
| GACCAAUCUGCCCUCAGAGCUCGAGAACAUCUUCGGAUGCAGAGGAGGCAGGCUUGGGUGGCGCGAUAGCGCCAACGUCCGCAACCUCCAAUGCAUCCCACCACAUGAUGAUGCCUGAAGAGCCUUGGUUUUUUG [C56G U81G] | -2.07 |
| GACCAAUCUGCCCUCAGAGCUCGAGAACAUCUUCGGAUGCAGAGGAGGCAGGCUUGGGUGGCGCAAUAGCGCCAACGUCCUCAACCUCCAAUGCAUCCCACCACAUGAUGAUGCCUGAAGAGCCUUGGUUUUUUG [C56G G65A] | -4.66 |
| GACCAAUCUGCCCUCAGAGCUCGAGAACAUCUUCGGAUGCAGAGGAGGCAGGCUUGGGUGGCGCGAUAGCGCCAACGUCCUCAACCUCCAAUGCAUCCCACCACAUGAUGAUGCCUGAAGAGCCUUGGUCUUUUG [C56G U130C] | -1.02 |
| GACCAAUCUGCCCUCAGAGCUCGAGAACAUCUUCGGAUGCAGAGGAGGCAGGCUUGGGUGGCGCGAUAGCGCCAACGUCCUCAACCGCCAAUGCAUCCCACCACAUGAUGAUGCCUGAAGAGCCUUGGUUUUUUG [C56G U87G] | -0.352 |
| GACCAAUCUGCCCUCAGAGCUCGAGAACAUCUUCGGAUGCAGAGGAGGCAGGCUUGGGUGGCGCGAUAGCGCCAACGUCCUCAACCACCAAUGCAUCCCACCACAUGAUGAUGCCUGAAGAGCCUUGGUUUUUUG [C56G U87A] | -1.33 |
| GACCAAUCUGCCCUCAGAGCUCGAGAACAUCUUCGGAUGCAGAGGAGGCAGGCUUGGGUGUCGCGAUAGCGCCAACGUCCUCAACCUCCAAUGCAUCCCACCACAAGAUGAUGCUUGAAGAGCCUUGGUUUUUUG [C56G G61U U106A C115U] | -5.22 |
| GACCAAUCUGCCCUCAGAGCUCGAGAACAUCUUCGGAUGCAGAGGAGGCAGGCUUGGGUGGCGCGAUAGCACCAACGUCCUCAACCUCCAAUGCAUCCCACCACAUGAUUAUGCCUAAAGAGCCUUGGUUUUUUG [C56G G71A G110U G117A] | -5.02 |
| GACCAAUCUGCCCUCAGAGCUCGAGAACAUCUUCGGAUGCAGAGGAGGCAGGCUUGGGUGGCGCGAUAGCGCCAACGUCCUCAACCUCCAAUGCAUCCCACCACAUUAUGAUGCCUGAAGAGCCUUGGUUUUUUG [C56G G107U] | -5.02 |
| GACCAAUCUGCCCUCAGAGCUCGAGAACAUCUUCGGAUGCAGAGGAGGCAGGCUUUGGUGGCGCGAUAGCGCCGACGUCCGCAACCUCCAAUGCAUCCCACCACAUGAUGAUGCCUUUAGAGCCUUGGUUUUUUG [C56U A74G U81G G117U A118U] | -4.51 |

Reference: the RNAGym collection of RNA variant scans (doi:10.1073/pnas.2313332121)
